Laboratory results as given in article PMC11969024 (2025).

B1: peptide HD2 (from tick evasin EVA4) / CCL4 (biotinylated, synthetic) (parent complex)
chain 1: EEDDYTAYAPLTCYFT
chain 2: APMGSDPPTACCFSYTARKLPRNFVVDYYETSSLCSQPAVVFQTKRSKQVCADPSESWVQEYVYDLELN

Variants of: B1
With chain 1 A7Q the enrichment was 2.27 log2 (difference from the parental peptide).
In the case of chain 1 A7D, the enrichment is reported as 1.81 log2 (difference from the parental peptide).
In the case of chain 1 A7H, the enrichment is reported as -0.536 log2 (difference from the parental peptide).
For chain 1 A7F, the enrichment was -2.35 log2 (difference from the parental peptide).
In the case of chain 1 F15K, the enrichment is reported as 0.923 log2 (difference from the parental peptide).
With chain 1 F15W the enrichment was -1.58 log2 (difference from the parental peptide).
In the case of chain 1 F15C, the enrichment is reported as -4.83 log2 (difference from the parental peptide).
In the case of chain 1 F15I, the enrichment is reported as 0.969 log2 (difference from the parental peptide).
With chain 1 F15D the enrichment was -2.26 log2 (difference from the parental peptide).
For chain 1 F15S, the enrichment was -0.0882 log2 (difference from the parental peptide).
chain 1 P10C was tested, and the enrichment was -7.71 log2 (difference from the parental peptide).
For chain 1 P10E, the enrichment was -4.88 log2 (difference from the parental peptide).
In the case of chain 1 P10Y, the enrichment is reported as -7.13 log2 (difference from the parental peptide).
For chain 1 P10A, the enrichment was -7.28 log2 (difference from the parental peptide).
With chain 1 E2H the enrichment was -2.04 log2 (difference from the parental peptide).
For chain 1 E2P, the enrichment was -3.03 log2 (difference from the parental peptide).
In the case of chain 1 E2R, the enrichment is reported as -4.37 log2 (difference from the parental peptide).
For chain 1 Y14W, the enrichment was -0.462 log2 (difference from the parental peptide).
With chain 1 Y14H the enrichment was -0.0476 log2 (difference from the parental peptide).
With chain 1 Y14K the enrichment was -5.73 log2 (difference from the parental peptide).
In the case of chain 1 Y14C, the enrichment is reported as -4.56 log2 (difference from the parental peptide).
chain 1 Y14L was tested, and the enrichment was -2.84 log2 (difference from the parental peptide).
In the case of chain 1 Y14F, the enrichment is reported as 0.581 log2 (difference from the parental peptide).
For chain 1 Y14M, the enrichment was -2.24 log2 (difference from the parental peptide).
With chain 1 Y14V the enrichment was -1.84 log2 (difference from the parental peptide).
With chain 1 A9V the enrichment was -8.22 log2 (difference from the parental peptide).
In the case of chain 1 A9Q, the enrichment is reported as -0.79 log2 (difference from the parental peptide).
In the case of chain 1 A9Y, the enrichment is reported as -5.65 log2 (difference from the parental peptide).
In the case of chain 1 A9M, the enrichment is reported as -3.9 log2 (difference from the parental peptide).
With chain 1 A9G the enrichment was -5.26 log2 (difference from the parental peptide).
chain 1 A9F was tested, and the enrichment was -6.63 log2 (difference from the parental peptide).
chain 1 T12K was tested, and the enrichment was -2.25 log2 (difference from the parental peptide).
For chain 1 T12R, the enrichment was -1.17 log2 (difference from the parental peptide).
With chain 1 T12P the enrichment was 0.2 log2 (difference from the parental peptide).
In the case of chain 1 T12Q, the enrichment is reported as 1 log2 (difference from the parental peptide).
In the case of chain 1 T12C, the enrichment is reported as -4.88 log2 (difference from the parental peptide).
In the case of chain 1 T12F, the enrichment is reported as 2.42 log2 (difference from the parental peptide).
chain 1 T12S was tested, and the enrichment was 0.347 log2 (difference from the parental peptide).
chain 1 C13I was tested, and the enrichment was -3.66 log2 (difference from the parental peptide).
In the case of chain 1 C13G, the enrichment is reported as -9 log2 (difference from the parental peptide).
With chain 1 C13S the enrichment was -4.84 log2 (difference from the parental peptide).
For chain 1 C13W, the enrichment was -6.63 log2 (difference from the parental peptide).
For chain 1 C13A, the enrichment was -7.87 log2 (difference from the parental peptide).
chain 1 C13N was tested, and the enrichment was -7.77 log2 (difference from the parental peptide).
chain 1 C13F was tested, and the enrichment was -8.2 log2 (difference from the parental peptide).
chain 1 D4T was tested, and the enrichment was -4.12 log2 (difference from the parental peptide).
In the case of chain 1 D4F, the enrichment is reported as -3.98 log2 (difference from the parental peptide).
For chain 1 D4Q, the enrichment was -3.05 log2 (difference from the parental peptide).
For chain 1 D4G, the enrichment was -4.2 log2 (difference from the parental peptide).
In the case of chain 1 T6L, the enrichment is reported as -2.59 log2 (difference from the parental peptide).
For chain 1 T6F, the enrichment was -4.46 log2 (difference from the parental peptide).
With chain 1 T6V the enrichment was -3.51 log2 (difference from the parental peptide).
chain 1 T6K was tested, and the enrichment was -1.03 log2 (difference from the parental peptide).
With chain 1 T6E the enrichment was 2.94 log2 (difference from the parental peptide).
With chain 1 E1R the enrichment was -3.09 log2 (difference from the parental peptide).
With chain 1 E1I the enrichment was -0.889 log2 (difference from the parental peptide).
With chain 1 E1S the enrichment was -0.537 log2 (difference from the parental peptide).
In the case of chain 1 E1M, the enrichment is reported as -0.205 log2 (difference from the parental peptide).
In the case of chain 1 E1V, the enrichment is reported as -1.21 log2 (difference from the parental peptide).
For chain 1 Y5W, the enrichment was 1.96 log2 (difference from the parental peptide).
With chain 1 Y5H the enrichment was -5.89 log2 (difference from the parental peptide).
For chain 1 Y5M, the enrichment was -3.3 log2 (difference from the parental peptide).
With chain 1 T16N the enrichment was 0.632 log2 (difference from the parental peptide).
In the case of chain 1 T16I, the enrichment is reported as -0.308 log2 (difference from the parental peptide).
chain 1 T16V was tested, and the enrichment was -0.281 log2 (difference from the parental peptide).
In the case of chain 1 D3R, the enrichment is reported as -4.7 log2 (difference from the parental peptide).
With chain 1 D3N the enrichment was -2.11 log2 (difference from the parental peptide).
chain 1 D3I was tested, and the enrichment was -3.64 log2 (difference from the parental peptide).
In the case of chain 1 D3S, the enrichment is reported as -2.37 log2 (difference from the parental peptide).
chain 1 Y8P was tested, and the enrichment was -0.864 log2 (difference from the parental peptide).
For chain 1 Y8V, the enrichment was -2.68 log2 (difference from the parental peptide).
In the case of chain 1 Y8N, the enrichment is reported as -2.94 log2 (difference from the parental peptide).
In the case of chain 1 L11D, the enrichment is reported as -7.07 log2 (difference from the parental peptide).
With chain 1 L11K the enrichment was 1.88 log2 (difference from the parental peptide).
chain 1 L11C was tested, and the enrichment was 0.222 log2 (difference from the parental peptide).
